What was measured:
Test in all cases: holdup assay
Set-up in all cases: key: below the threshold = too weak to quantify, mostly under pKd 3.1 to 4
DFNB31_2, Q9P202 = molecular target: T1, DFNB31_2, Q9P202
T1 sequence (Q9P202 274-371, limits assumed, looked up): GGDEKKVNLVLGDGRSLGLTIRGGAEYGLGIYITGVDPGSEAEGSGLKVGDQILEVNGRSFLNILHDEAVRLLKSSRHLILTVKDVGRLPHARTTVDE

MAST1, Q9Y2H9 = molecular target: MAST1, Q9Y2H9
GIPC2, Q8TF65 = molecular target: GIPC2, Q8TF65
CASK, O14936 = molecular target: CASK, O14936
DLG1_2, Q12959 = molecular target: DLG1_2, Q12959
GRIP1_5, Q9Y3R0 = molecular target: T2, GRIP1_5, Q9Y3R0
T2 sequence (Q9Y3R0 568-668, limits assumed, looked up): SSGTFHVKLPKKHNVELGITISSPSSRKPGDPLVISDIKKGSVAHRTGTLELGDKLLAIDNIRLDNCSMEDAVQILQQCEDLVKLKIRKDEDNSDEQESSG

DFNB31_1, Q9P202 = molecular target: T3, DFNB31_1, Q9P202
T3 sequence (Q9P202 135-233, limits assumed, looked up): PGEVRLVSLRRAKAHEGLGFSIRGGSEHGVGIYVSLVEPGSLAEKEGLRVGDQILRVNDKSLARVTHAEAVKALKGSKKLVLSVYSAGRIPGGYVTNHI

PDZD7_3, Q9H5P4 = molecular target: T4, PDZD7_3, Q9H5P4
T4 sequence (Q9H5P4 857-944, limits assumed, looked up): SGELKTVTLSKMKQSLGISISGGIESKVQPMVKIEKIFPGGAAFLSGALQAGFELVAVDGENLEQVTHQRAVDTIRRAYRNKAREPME

MAGI2_6, Q86UL8 = molecular target: MAGI2_6, Q86UL8
TJP3_3, O95049 = molecular target: T5, TJP3_3, O95049
T5 sequence (O95049 375-456, limits assumed, looked up): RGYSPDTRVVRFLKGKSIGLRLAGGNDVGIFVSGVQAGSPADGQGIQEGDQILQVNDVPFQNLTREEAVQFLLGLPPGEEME

NHERF2_2, Q15599 = molecular target: NHERF2_2, Q15599
GRIP2_6, Q9C0E4 = molecular target: GRIP2_6, Q9C0E4
NHERF3_1, Q5T2W1 = molecular target: T6, NHERF3_1, Q5T2W1
T6 sequence (Q5T2W1 4-100, limits assumed, looked up): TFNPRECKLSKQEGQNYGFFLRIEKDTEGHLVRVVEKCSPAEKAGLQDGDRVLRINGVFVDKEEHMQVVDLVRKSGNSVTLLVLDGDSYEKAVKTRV

NHERF4_2, Q86UT5 = molecular target: NHERF4_2, Q86UT5
HTRA4, P83105 = molecular target: T7, HTRA4, P83105
T7 sequence (P83105 378-476, limits assumed, looked up): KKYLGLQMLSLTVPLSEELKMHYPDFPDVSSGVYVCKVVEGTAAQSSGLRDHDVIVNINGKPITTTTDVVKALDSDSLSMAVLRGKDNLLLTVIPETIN

LRRC7, Q96NW7 = molecular target: T8, LRRC7, Q96NW7
T8 sequence (Q96NW7 1440-1537, limits assumed, looked up): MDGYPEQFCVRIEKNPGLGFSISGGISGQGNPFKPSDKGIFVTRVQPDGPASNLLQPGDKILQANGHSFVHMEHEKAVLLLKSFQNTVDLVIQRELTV

SCRIB_1, Q14160 = molecular target: SCRIB_1, Q14160
APBA1_2, Q02410 = molecular target: T9, APBA1_2, Q02410
T9 sequence (Q02410 742-832, limits assumed, looked up): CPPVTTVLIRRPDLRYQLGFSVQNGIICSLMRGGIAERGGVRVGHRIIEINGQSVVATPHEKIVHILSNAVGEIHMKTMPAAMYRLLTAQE

APBA2_1, Q99767 = molecular target: T10, APBA2_1, Q99767
T10 sequence (Q99767 563-664, limits assumed, looked up): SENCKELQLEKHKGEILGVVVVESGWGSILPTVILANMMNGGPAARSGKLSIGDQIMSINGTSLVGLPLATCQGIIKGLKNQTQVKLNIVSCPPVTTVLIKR

SIPA1L2, Q9P2F8 = molecular target: T11, SIPA1L2, Q9P2F8
T11 sequence (Q9P2F8 945-1036, limits assumed, looked up): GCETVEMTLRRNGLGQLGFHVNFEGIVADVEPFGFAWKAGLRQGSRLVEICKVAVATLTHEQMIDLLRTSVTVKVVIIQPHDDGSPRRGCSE

LNX2_3, Q8N448 = molecular target: T12, LNX2_3, Q8N448
T12 sequence (Q8N448 463-564, limits assumed, looked up): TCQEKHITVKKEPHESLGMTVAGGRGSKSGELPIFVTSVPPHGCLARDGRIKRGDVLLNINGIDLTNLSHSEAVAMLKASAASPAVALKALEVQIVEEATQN

TIAM2, Q8IVF5 = molecular target: T13, TIAM2, Q8IVF5
T13 sequence (Q8IVF5 885-986, limits assumed, looked up): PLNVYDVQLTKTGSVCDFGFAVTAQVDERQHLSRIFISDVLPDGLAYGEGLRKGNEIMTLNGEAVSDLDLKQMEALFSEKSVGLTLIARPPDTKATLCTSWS

DLG1_3, Q12959 = molecular target: DLG1_3, Q12959
DLG1_1, Q12959 = molecular target: DLG1_1, Q12959
Inadl_3, Q8NI35 = molecular target: Inadl_3, Q8NI35
[1] = plain residues with an end cap or a label only (N-terminal biotin on a linker: ado-ado)
[2] = plain residues with an end cap or a label only (N-terminal biotin on a linker: (peg)3)

Sequence of NHERF4_2, Q86UT5 (Q86UT5 220-308): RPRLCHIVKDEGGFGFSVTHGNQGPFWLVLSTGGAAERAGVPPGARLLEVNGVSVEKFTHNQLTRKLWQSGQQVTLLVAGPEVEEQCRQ
Sequence of MAST1, Q9Y2H9 (Q9Y2H9 962-1065): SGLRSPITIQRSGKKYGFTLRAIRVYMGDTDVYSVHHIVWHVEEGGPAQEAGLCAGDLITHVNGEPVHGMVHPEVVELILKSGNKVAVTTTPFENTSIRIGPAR
Sequence of CASK, O14936 (O14936 487-570): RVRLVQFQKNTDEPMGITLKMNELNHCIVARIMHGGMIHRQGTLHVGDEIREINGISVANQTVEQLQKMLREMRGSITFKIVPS
Sequence of MAGI2_6, Q86UL8 (Q86UL8 1141-1229): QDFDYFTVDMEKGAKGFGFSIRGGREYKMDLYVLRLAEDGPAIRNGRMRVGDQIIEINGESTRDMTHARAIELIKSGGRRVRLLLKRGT
Sequence of NHERF2_2, Q15599 (Q15599 142-238): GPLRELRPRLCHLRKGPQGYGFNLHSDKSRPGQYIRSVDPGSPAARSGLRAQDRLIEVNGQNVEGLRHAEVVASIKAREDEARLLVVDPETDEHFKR
Sequence of SCRIB_1, Q14160 (Q14160 718-814): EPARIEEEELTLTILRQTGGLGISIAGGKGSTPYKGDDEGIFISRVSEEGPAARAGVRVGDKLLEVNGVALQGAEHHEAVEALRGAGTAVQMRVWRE
Sequence of Inadl_3, Q8NI35 (Q8NI35 359-469): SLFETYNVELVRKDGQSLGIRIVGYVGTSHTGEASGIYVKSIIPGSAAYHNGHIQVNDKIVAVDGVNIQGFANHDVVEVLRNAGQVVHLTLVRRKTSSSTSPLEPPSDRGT
Sequence of GRIP2_6, Q9C0E4 (Q9C0E4 648-740): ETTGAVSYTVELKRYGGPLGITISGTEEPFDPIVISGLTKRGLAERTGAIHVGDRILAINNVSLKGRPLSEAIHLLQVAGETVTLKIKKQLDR
Sequence of GIPC2, Q8TF65 (Q8TF65 112-203): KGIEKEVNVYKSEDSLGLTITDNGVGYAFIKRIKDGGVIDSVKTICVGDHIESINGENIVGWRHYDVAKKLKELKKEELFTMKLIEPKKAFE

SRPTKGPTLL [PLEKHH2, Q8IVE3]
pKd (DFNB31_2, Q9P202; [1]): below the threshold | pKd (MAST1, Q9Y2H9; [1]): below the threshold | pKd (GIPC2, Q8TF65; [1]): below the threshold | pKd (CASK, O14936; [1]): below the threshold | pKd (DLG1_2, Q12959; [1]): 3.82 | pKd (GRIP1_5, Q9Y3R0; [1]): below the threshold | pKd (DFNB31_1, Q9P202; [1]): below the threshold | pKd (PDZD7_3, Q9H5P4; [1]): 4.78 | pKd (MAGI2_6, Q86UL8; [1]): below the threshold | pKd (TJP3_3, O95049; [1]): below the threshold | pKd (NHERF2_2, Q15599; [1]): below the threshold | pKd (GRIP2_6, Q9C0E4; [1]): below the threshold | pKd (NHERF3_1, Q5T2W1; [1]): 4.79 | pKd (NHERF4_2, Q86UT5; [1]): below the threshold | pKd (HTRA4, P83105; [1]): below the threshold | pKd (LRRC7, Q96NW7; [1]): below the threshold | pKd (SCRIB_1, Q14160; [1]): 3.86 | pKd (APBA1_2, Q02410; [1]): 4.25 | pKd (APBA2_1, Q99767; [1]): below the threshold | pKd (SIPA1L2, Q9P2F8; [1]): below the threshold | pKd (LNX2_3, Q8N448; [1]): below the threshold | pKd (TIAM2, Q8IVF5; [1]): below the threshold | pKd (DLG1_3, Q12959; [1]): below the threshold | pKd (DLG1_1, Q12959; [1]): 3.72 | pKd (Inadl_3, Q8NI35; [1]): below the threshold

RTQSSDSAYV [GJD2, Q9UKL4]
pKd (DFNB31_2, Q9P202; [1]): below the threshold | pKd (MAST1, Q9Y2H9; [1]): below the threshold | pKd (GIPC2, Q8TF65; [1]): below the threshold | pKd (CASK, O14936; [1]): below the threshold | pKd (DLG1_2, Q12959; [1]): 3.88 | pKd (GRIP1_5, Q9Y3R0; [1]): below the threshold | pKd (DFNB31_1, Q9P202; [1]): below the threshold | pKd (PDZD7_3, Q9H5P4; [1]): below the threshold | pKd (MAGI2_6, Q86UL8; [1]): 3.58 | pKd (TJP3_3, O95049; [1]): 3.71 | pKd (NHERF2_2, Q15599; [1]): 3.49 | pKd (GRIP2_6, Q9C0E4; [1]): below the threshold | pKd (NHERF3_1, Q5T2W1; [1]): 4.95 | pKd (NHERF4_2, Q86UT5; [1]): below the threshold | pKd (HTRA4, P83105; [1]): below the threshold | pKd (LRRC7, Q96NW7; [1]): below the threshold | pKd (SCRIB_1, Q14160; [1]): below the threshold | pKd (APBA1_2, Q02410; [1]): 4.09 | pKd (APBA2_1, Q99767; [1]): below the threshold | pKd (SIPA1L2, Q9P2F8; [1]): below the threshold | pKd (LNX2_3, Q8N448; [1]): below the threshold | pKd (TIAM2, Q8IVF5; [1]): below the threshold | pKd (DLG1_3, Q12959; [1]): below the threshold | pKd (DLG1_1, Q12959; [1]): below the threshold | pKd (Inadl_3, Q8NI35; [1]): below the threshold

LTAQEQPVYI [APBA1, Q02410]
pKd (DFNB31_2, Q9P202; [1]): below the threshold | pKd (MAST1, Q9Y2H9; [1]): 3.58 | pKd (GIPC2, Q8TF65; [1]): below the threshold | pKd (CASK, O14936; [1]): below the threshold | pKd (DLG1_2, Q12959; [1]): below the threshold | pKd (GRIP1_5, Q9Y3R0; [1]): below the threshold | pKd (DFNB31_1, Q9P202; [1]): below the threshold | pKd (PDZD7_3, Q9H5P4; [1]): below the threshold | pKd (MAGI2_6, Q86UL8; [1]): below the threshold | pKd (TJP3_3, O95049; [1]): 3.67 | pKd (NHERF2_2, Q15599; [1]): below the threshold | pKd (GRIP2_6, Q9C0E4; [1]): below the threshold | pKd (NHERF3_1, Q5T2W1; [1]): below the threshold | pKd (NHERF4_2, Q86UT5; [1]): below the threshold | pKd (HTRA4, P83105; [1]): 4.89 | pKd (LRRC7, Q96NW7; [1]): below the threshold | pKd (SCRIB_1, Q14160; [1]): below the threshold | pKd (APBA1_2, Q02410; [1]): 4.36 | pKd (APBA2_1, Q99767; [1]): below the threshold | pKd (SIPA1L2, Q9P2F8; [1]): below the threshold | pKd (LNX2_3, Q8N448; [1]): below the threshold | pKd (TIAM2, Q8IVF5; [1]): 4.01 | pKd (DLG1_3, Q12959; [1]): below the threshold | pKd (DLG1_1, Q12959; [1]): below the threshold | pKd (Inadl_3, Q8NI35; [1]): below the threshold

YDEPTTTTSVPL [SARS-Cov2-3a, P0DTC3]
pKd (DFNB31_2, Q9P202; [2]): below the threshold | pKd (MAST1, Q9Y2H9; [2]): below the threshold | pKd (GIPC2, Q8TF65; [2]): below the threshold | pKd (CASK, O14936; [2]): below the threshold | pKd (DLG1_2, Q12959; [2]): below the threshold | pKd (GRIP1_5, Q9Y3R0; [2]): below the threshold | pKd (DFNB31_1, Q9P202; [2]): below the threshold | pKd (PDZD7_3, Q9H5P4; [2]): below the threshold | pKd (MAGI2_6, Q86UL8; [2]): below the threshold | pKd (TJP3_3, O95049; [2]): below the threshold | pKd (NHERF2_2, Q15599; [2]): below the threshold | pKd (GRIP2_6, Q9C0E4; [2]): below the threshold | pKd (NHERF3_1, Q5T2W1; [2]): 3.92 | pKd (NHERF4_2, Q86UT5; [2]): below the threshold | pKd (HTRA4, P83105; [2]): below the threshold | pKd (LRRC7, Q96NW7; [2]): below the threshold | pKd (SCRIB_1, Q14160; [2]): below the threshold | pKd (APBA1_2, Q02410; [2]): below the threshold | pKd (APBA2_1, Q99767; [2]): below the threshold | pKd (SIPA1L2, Q9P2F8; [2]): below the threshold | pKd (LNX2_3, Q8N448; [2]): below the threshold | pKd (TIAM2, Q8IVF5; [2]): below the threshold | pKd (DLG1_3, Q12959; [2]): below the threshold | pKd (DLG1_1, Q12959; [2]): below the threshold | pKd (Inadl_3, Q8NI35; [2]): below the threshold
